Measured values published in US20240209099A1 (SUZHOU TRANSCENTA THERAPEUTICS, published 2024).

Key:
[1] = molecular target: T1, Recombinant Human VEGFR2/KDR Protein, His tag (hVEGFR2-his) (human, UniProt P35968 20-764); assay: ELISA, hVEGFR2-his coated
T1 construct: Expressed in HEK293, bought from ACRO Biosystems; also called human VEGFR2-his; Human VEGFR2/KDR-His
Procedure: Same protocol of Example 2 antibody screening by ELISA assay. Briefly, 0.5 μg/ml hVEGFR2-his was coated and serially diluted purified antibodies would bind to coated antigen. Using HRP conjugated goat anti-mouse Fc antibody could detect binding signals of each antibody.
The hybridoma antibodies have similar affinity to human.

[2] = molecular target: T1, Recombinant Human VEGFR2/KDR Protein, …; assay: SPR (Biacore), antibody captured by anti-Fc, antigen 2.5-80 nM
Procedure: A CM5 sensor chip was activated in each flow cell by 7-min injection (10 μl/min) of freshly prepared 1:1 50 mM N-hydroxysuccinimide (NHS): 200 mM 1-ethyl-3-(3-dimethylaminopropyl)-carbodiimide (EDC). Then anti-human Fc antibody (GE Healthcare) in a concentration of 10 μg/ml in 10 mM sodium acetate buffer PH 5.0 was injected onto the activated chip at 10 μl/min (HBS-EP running buffer: 10 mM HEPES, 150 mM NaCl, 3.4 mM EDTA, 0.005% surfactant P20, pH 7.4). The remaining active coupling sites were blocked by 7 min injection of 1M ethanolamine at 10 μl/min. The immobilization level of each flow cell is ˜9000RU. Antibodies were captured in FC2 by anti-human Fc IgG or anti-mouse Fc (GE Healthcare) to 200˜300RU. FC1 was used as the reference cell. Antigen was injected at varying concentrations (2.5 nM, 5 nM, 10 nM, 20 nM, 40 nM and 80 nM) after capture of antibody. The association time for antibody binding antigen is 180s. Surface Regeneration condition is 120s at 10 μl/min in Gly pH1.5. The signals with captured antibody subtracted from those without captured antibody were calculated with Biacore X100 evaluation software ver. 2.0 (Biacore).

[3] = molecular target: T2, human VEGFR2 on HUVEC cells (human, UniProt P35968 20-1356); assay: flow cytometry on HUVEC cells, percent shifted cells (Shift%), anti-mouse IgG-PE
T2 construct: also called hVEGFR2 on HUVEC
T2 sequence (P35968 20-1356 V297I/Q472H limits assumed): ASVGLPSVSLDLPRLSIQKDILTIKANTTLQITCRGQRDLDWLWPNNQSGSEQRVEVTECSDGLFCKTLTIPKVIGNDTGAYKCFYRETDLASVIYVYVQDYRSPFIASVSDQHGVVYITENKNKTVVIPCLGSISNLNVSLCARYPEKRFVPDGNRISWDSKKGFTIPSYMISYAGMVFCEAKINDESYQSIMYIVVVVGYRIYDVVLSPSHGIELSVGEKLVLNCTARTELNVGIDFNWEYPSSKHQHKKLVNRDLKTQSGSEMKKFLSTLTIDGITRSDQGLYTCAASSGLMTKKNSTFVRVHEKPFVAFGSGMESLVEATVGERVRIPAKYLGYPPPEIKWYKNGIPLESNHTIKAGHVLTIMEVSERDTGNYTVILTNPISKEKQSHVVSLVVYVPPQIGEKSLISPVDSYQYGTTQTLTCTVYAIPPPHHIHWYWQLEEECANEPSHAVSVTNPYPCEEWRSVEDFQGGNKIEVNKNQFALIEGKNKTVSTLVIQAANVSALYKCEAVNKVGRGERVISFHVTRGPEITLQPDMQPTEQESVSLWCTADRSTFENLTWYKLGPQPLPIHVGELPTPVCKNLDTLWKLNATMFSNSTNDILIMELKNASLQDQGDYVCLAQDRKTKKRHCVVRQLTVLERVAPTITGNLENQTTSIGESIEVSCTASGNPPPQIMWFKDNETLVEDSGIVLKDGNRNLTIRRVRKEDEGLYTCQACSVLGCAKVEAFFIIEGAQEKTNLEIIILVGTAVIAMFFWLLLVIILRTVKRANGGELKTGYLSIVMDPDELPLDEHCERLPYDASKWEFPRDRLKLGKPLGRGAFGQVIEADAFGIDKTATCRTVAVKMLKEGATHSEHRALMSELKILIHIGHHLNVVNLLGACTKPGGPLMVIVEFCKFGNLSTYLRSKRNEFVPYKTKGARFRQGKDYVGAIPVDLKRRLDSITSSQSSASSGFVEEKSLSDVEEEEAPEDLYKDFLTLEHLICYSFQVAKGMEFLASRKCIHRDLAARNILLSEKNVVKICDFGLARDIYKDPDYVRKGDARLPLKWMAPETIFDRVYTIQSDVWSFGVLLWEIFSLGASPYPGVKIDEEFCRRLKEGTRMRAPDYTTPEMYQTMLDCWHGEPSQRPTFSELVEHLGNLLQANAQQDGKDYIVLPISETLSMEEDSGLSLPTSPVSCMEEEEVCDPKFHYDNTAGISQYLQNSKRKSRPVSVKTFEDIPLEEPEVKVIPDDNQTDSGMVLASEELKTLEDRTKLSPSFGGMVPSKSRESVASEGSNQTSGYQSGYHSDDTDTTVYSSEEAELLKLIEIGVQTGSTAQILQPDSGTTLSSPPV
Procedure: Log phase HUVEC cells were collected, counted and resuspended in FACS buffer (5% BSA+PBS). 2×10∧5 cells were added to each tube and then washed once with PBS (1500 rpm, 5 mins, RT). Then […] serial diluted VEGFR2 antibodies purified from hybridoma supernatant in FACS buffer were added into corresponding tubes and were incubated at 4° C. for 1 hr. The cells were then washed twice with 1 ml PBS, followed by adding 100 μl/tube of 2nd antibody (1:400 anti-mIgG (H+L)-PE, Cell signaling #8887) in FACS buffer. The cells were incubated at 4° C. for 0.5 hr and then washed twice with PBS, followed by resuspending cells in 600 μl PBS for each sample. The cells were then transferred into FACS tube and the bindings of the antibodies to the cells were detected using flow cytometry (BD Accuri C6) (see FIG. 3).
The percentage of positive binding cells was calculated and fit by Graphpad Prism Software.

[4] = molecular target: T1, Recombinant Human VEGFR2/KDR Protein, …; assay: competition ELISA on coated hVEGFR2-his: hybridoma antibody titrated against 100 ng/ml chimeric 002C, anti-human IgG Fc-HRP
[5] = molecular target: T1, Recombinant Human VEGFR2/KDR Protein, …; assay: competition ELISA: hVEGFR2-his coated (1 ug/ml), antibody titrated, then 0.3 ug/ml hVEGF-A added and bound VEGF-A detected; blocked ligand hVEGF-A
Procedure: High-binding clear polystyrene 96 well plates were coated with 100 μl/well of 1 μg/ml hVEGFR2-his overnight at 4° C. After washing and blocking, serial diluted antibodies (from 10 μg/ml to 0.0006 μg/ml) were added and incubate for 1 hour at RT. 0.3 μg/ml hVEGF-A (Acrobiosystem, Cat #VE5-H4210) were added and incubated for 2 hour at RT. Then 100 μl/well of 0.25 μg/ml Biotinylated Rabbit Anti-human VEGF-A (Peprotech, Cat #400-P10Bt) was then added for detecting bound VEGF-A. Then 100 μl/well of a solution of HRP conjugated Neutravidin antibody (Pierce, Cat #31001) and TMB were added sequentially. Finally, reaction was terminated using 0.64M H₂SO₄ and plates were read at 450 nm.

[6] = molecular target: T1, Recombinant Human VEGFR2/KDR Protein, …; assay: ELISA, hVEGFR2-his coated, anti-human Fc-HRP; antibody made in 293T cells
Procedure: Same protocol of Example 4 except using HRP conjugated goat anti-human Fc antibody as secondary antibody. Binding to hVEGFR2-his and rhesus VEGFR2-his (Acrobiosystems, Cat #VE2-C52H3) were also analyzed head-to-head.
Same protocol of Example 9.

T1 sequence (P35968 other isoform, or with tags, fused parts or gaps): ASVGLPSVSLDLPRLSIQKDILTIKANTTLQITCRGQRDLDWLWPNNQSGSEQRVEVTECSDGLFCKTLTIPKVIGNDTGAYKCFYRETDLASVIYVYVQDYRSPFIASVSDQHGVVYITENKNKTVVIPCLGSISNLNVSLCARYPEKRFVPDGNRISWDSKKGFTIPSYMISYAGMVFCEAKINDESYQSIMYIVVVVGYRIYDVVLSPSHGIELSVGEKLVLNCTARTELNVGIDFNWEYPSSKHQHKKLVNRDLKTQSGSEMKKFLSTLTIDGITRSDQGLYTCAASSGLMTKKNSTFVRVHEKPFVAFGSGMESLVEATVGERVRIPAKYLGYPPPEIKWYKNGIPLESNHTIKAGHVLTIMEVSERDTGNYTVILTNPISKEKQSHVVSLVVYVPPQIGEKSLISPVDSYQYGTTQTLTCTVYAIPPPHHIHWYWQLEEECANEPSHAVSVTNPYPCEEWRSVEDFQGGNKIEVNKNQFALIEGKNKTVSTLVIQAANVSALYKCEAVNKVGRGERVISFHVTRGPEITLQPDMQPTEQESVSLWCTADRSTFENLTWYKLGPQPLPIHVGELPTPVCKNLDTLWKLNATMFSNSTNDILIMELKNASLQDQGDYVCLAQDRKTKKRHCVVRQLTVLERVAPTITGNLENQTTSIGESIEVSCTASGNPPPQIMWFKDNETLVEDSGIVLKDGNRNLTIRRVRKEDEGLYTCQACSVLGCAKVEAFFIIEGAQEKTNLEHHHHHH

B1: 042 (mouse hybridoma antibody) (antibody, V domains shown)
VH: EVQLVESGGDLVKPGGSLKLSCTASGFSFSIYGMSWVRQTPDKRLEWVASISVGGSYTYYADSVEGRFTISRENAKNTLYLQMNSLKSEDTALYYCARELDGNYDYWGQGTSLTVSS
VL: DIVITQNELSNPVTFGESVSISCRSSKSLLYKDGKTYLNWFLQRPGQSPQLLIYLMSTRASGVSDRFSGSGSGTDFTLEISRVKAEDVGVYYCQQLVEYPFTFGSGTKLEIK
notes: Mouse antibody purified from hybridoma; also called mAb042; 8G11G1B2C6
B1 showed an EC50 [1] of 0.0224 µg/mL, a Kd [2] of 0.573 nM and a koff [2] of 4.88e-05 s⁻¹. The kon [2] was 85100 M⁻¹ s⁻¹, the EC50 [3] was 0.052 µg/mL and the “IC50 (read off the curve)” value [4] was roughly 0.1 µg/mL. It also gave an IC50 [5] of 0.0629 µg/mL.

B2: 48-H3L2 (antibody, V domains shown)
VH: EVQLVESGGGLVKPGGSLRLSCAASGFTFSMYGMSWVRQAPGKRLEWVASISIGGSYTYYADSVKGRFTISRDNAKNTLYLQMNSLRAEDTAVYYCAREMDGNYDYWGHGTTLTVSS
VL: DIVITQTPLSLPVTPGESVSISCRSSKSLLYKDGKTYLNWFLQRPGQSPQLLIYLMSTRASGVPDRFSGSGSGTDFTLKISRVEAEDVGVYYCQQLVEYPFTFGSGTKLEIK
notes: also called humanized Mab48 variant H3L2
In the case of B2, the EC50 [6] is reported as 0.0171 µg/mL.

B3: 54-H2L2 (humanized Mab54) (antibody, human IgG1, V domains shown)
VH: EVQLVESGGGLVKPGGSLRLSCAASGFTFSMYGMSWVRQAPGKRLEWVASISIGGSYTYYADSVKGRFTISRDNAKNTLYLQMNSLRAEDTAVYYCARELDGNYDYWGQGTTLTVSS
VL: DIVITQTPLSLPVTPGESVSISCRSSKSLLYKDGKTYLNWFLQRPGQSPQLLIYLMSTRASGVPDRFSGSGSGTDFTLKISRVEAEDVGVYYCQQLVEYPFTFGSGTKLEIK
notes: also called humanized 54 variant H2L2
B3 was tested, and the Kd [2] was 4.3 nM, the koff [2] was 0.000128 s⁻¹ and the kon [2] was 29700 M⁻¹ s⁻¹. For the same binder, the EC50 [6] was 0.0442 µg/mL.

B4: 54-H1L1 (humanized Mab54) (antibody, human IgG1, V domains shown)
VH: EVQLVESGGGLVKPGGSLKLSCAASGFTFSMYGMSWVRQTPGKRLEWVASISIGGSYTYYADSVKGRFTISRDNAKNTLYLQMNSLKAEDTAVYYCARELDGNYDYWGQGTTLTVSS
VL: DIVITQDELSLPVTFGESVSISCRSSKSLLYKDGKTYLNWFLQRPGQSPQLLIYLMSTRASGVSDRFSGSGSGTDFTLKISRVEAEDVGIYYCQQLVEYPFTFGSGTKLEIK
notes: also called humanized 54 variant H1L1
B4 showed a Kd [2] of 1.14 nM, a koff [2] of 5.15e-05 s⁻¹ and a kon [2] of 45100 M⁻¹ s⁻¹. For the same binder, the EC50 [6] was 0.0221 µg/mL.

B5: 54-H1L2 (humanized Mab54) (antibody, human IgG1, V domains shown)
VH: EVQLVESGGGLVKPGGSLKLSCAASGFTFSMYGMSWVRQTPGKRLEWVASISIGGSYTYYADSVKGRFTISRDNAKNTLYLQMNSLKAEDTAVYYCARELDGNYDYWGQGTTLTVSS
VL: DIVITQTPLSLPVTPGESVSISCRSSKSLLYKDGKTYLNWFLQRPGQSPQLLIYLMSTRASGVPDRFSGSGSGTDFTLKISRVEAEDVGVYYCQQLVEYPFTFGSGTKLEIK
notes: also called humanized 54 variant H1L2
With B5 the Kd [2] was 3.68 nM, the koff [2] was 0.000139 s⁻¹ and the kon [2] was 37700 M⁻¹ s⁻¹. It also gave an EC50 [6] of 0.0706 µg/mL.

B6: 002 (mouse hybridoma antibody) (antibody, V domains shown)
VH: QVQLQQSGPELVKPGASVKISCKASGYAFSSSWMNWVKQRPGEGLEWIGRIFPGDGDTYYNGKFQVKATLTADKSSSTAYMQLSSLTSEDSAVYFCAIFLDTSGRYVDYWGQGTTLTISS
VL: DIVMTQSHKFMSTSVGDRVSITCKASQDVNTAVAWYQQKPGQSPKLLIYSASYRYIGVPDRFTGSGSGTDFTFTISSVQSEDLTVYYCQQHYRAPLTFGSGTKLELK
notes: Mouse antibody purified from hybridoma; also called mAb002; 11B8
For B6, the EC50 [1] was 0.0168 µg/mL, the Kd [2] was 5.98 nM and the koff [2] was 0.000336 s⁻¹. For the same binder, the kon [2] was 56200 M⁻¹ s⁻¹, the EC50 [3] was 0.0462 µg/mL and the “IC50 (read off the curve)” value [4] was roughly 0.2 µg/mL. It also gave an IC50 [5] of 0.0434 µg/mL.

B7: 018 (mouse hybridoma antibody) (antibody, V domains shown)
VH: EVKLVESGGGLVQPGGSLSLSCAVSGFTFTDYYMSWVRQPPGKALEWLGFIRNKANGYTTEYSASVKGRFTISRDNSQSILYLQMNALRAEDSATYYCARFDYYGSTYCFDYWGQGTTLTVSS
VL: DIVLTQSPASLAVSLGQRATISCRASQSVSTSSSSFMHWYQQKPGQPPKLLIKYASNLESGVPARFSGSGSGTDFTLNIHPVEEEDTATYYCQHTWEIPLTFGAGTKLELK
notes: Mouse antibody purified from hybridoma; also called mAb018; 16D9G2E8
For B7, the EC50 [1] was 0.0129 µg/mL, the Kd [2] was 5.11 nM and the koff [2] was 0.000452 s⁻¹. The kon [2] was 88400 M⁻¹ s⁻¹.

B8: 003 (mouse hybridoma antibody) (antibody, V domains shown)
VH: QVQLQQPGAELVKPGASVKMSCKASGYTFNTYWIMWVKQRPGQGLEWIGDIYPGTGSTNYNEKFKSKVTLTADTSSTTAYMQVSSLTSEDSAVYYCGRDSNPDYWGQGTTLTVSS
VL: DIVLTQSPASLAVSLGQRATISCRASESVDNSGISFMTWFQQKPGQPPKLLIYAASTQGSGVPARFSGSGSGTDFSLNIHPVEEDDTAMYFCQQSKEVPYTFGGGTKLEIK
notes: Mouse antibody purified from hybridoma; also called mAb003; 21B4
Work on B8 yielded an EC50 [1] of 0.00769 µg/mL, a Kd [2] of 0.235 nM and a koff [2] of 2.95e-05 s⁻¹. The kon [2] was 126000 M⁻¹ s⁻¹.

B9: 006 (mouse hybridoma antibody) (antibody, V domains shown)
VH: QAQLQQPGAELVKPGTSVKMSCKASGYTFNSYWIMWVKQSPGQGLEWIGDIYPGSGSTNYNEKFKSKVTLTVDTSSSTAYMQVSSLTSEDSAVYYCARDSNPDYWGQGTTLTVSS
VL: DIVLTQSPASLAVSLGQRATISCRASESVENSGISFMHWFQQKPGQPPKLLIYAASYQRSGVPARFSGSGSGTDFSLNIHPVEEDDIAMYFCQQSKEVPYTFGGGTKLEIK
notes: Mouse antibody purified from hybridoma; also called mAb006; 27E8A9D5
Binder B9 has an EC50 [1] of 0.0135 µg/mL, a Kd [2] of 1.47 nM and a koff [2] of 0.000186 s⁻¹. For the same binder, the kon [2] was 127000 M⁻¹ s⁻¹.
